Assays:
[1] = target: T1, human TNFα (Tumor Necrosis Factor-alpha), soluble (human, UniProt P01375 77-233); assay: cell-based or functional assay
[2] = target: T1, human TNFα (Tumor Necrosis …); assay: cell-based or functional assay; remark: listed apart in the source
[3] = target: transmembrane mutant TNFα expressed on the surface of CHO cells (UniProt P01375 1-233); assay: cell-based or functional assay
[4] = target: T1, human TNFα (Tumor Necrosis …); assay: cell-based or functional assay; remark: listed apart in the source
[5] = target: human TNFα R31Q, Q27E mutant (human, UniProt P01375 77-233); assay: ELISA on chimeric/mutant TNFα
Text: (§1) In order to define the binding site for different antibodies, a number of residues of hTNFα were mutated using site directed mutagenesis. A panel of antibodies was screened for binding by an ELISA assay. […] Histidine at position 73 was deleted, an example is illustrated in Table 19.

human TNFα R131Q mutant = human TNFα R131Q mutant (human, UniProt P01375 77-233); assay: ELISA on chimeric/mutant TNFα
Text: as §1

human TNFα R31Q mutant = human TNFα R31Q mutant (human, UniProt P01375 77-233); assay: ELISA on chimeric/mutant TNFα
human TNFα R31Q mutant, sequence (P01375 77-233 R107Q): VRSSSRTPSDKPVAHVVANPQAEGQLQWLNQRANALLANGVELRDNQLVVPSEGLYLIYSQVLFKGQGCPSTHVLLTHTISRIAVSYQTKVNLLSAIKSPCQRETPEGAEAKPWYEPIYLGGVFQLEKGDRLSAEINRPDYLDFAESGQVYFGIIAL
Text: as §1

mouse TNFα = target: T2, mouse TNFα (mouse, UniProt P06804 80-235); assay: binding to chimeric TNF proteins
T2 construct: also called M TNFα; murine TNF
T2 sequence: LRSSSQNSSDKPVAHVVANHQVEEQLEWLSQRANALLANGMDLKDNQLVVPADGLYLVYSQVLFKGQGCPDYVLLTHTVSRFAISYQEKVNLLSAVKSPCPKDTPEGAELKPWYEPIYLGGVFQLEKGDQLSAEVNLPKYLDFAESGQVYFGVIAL

[6] = target: T1, human TNFα (Tumor Necrosis …); assay: KinExA, TNFα counted as one trimer
Description: (§2) The kinetic measurements of the anti-TNFα antibodies were evaluated using KinExA® and BIACORE® technologies. The KinExA® method involves solution-based determination of formal affinity measurements at equilibrium. To measure the binding kinetics of each human anti-TNFα antibody, two experiments in replicates of three were performed. In both experiments a known concentration of antigen was titrated and a different antibody concentration was added to each antigen titration and allowed to reach binding equilibrium. […] The results were analyzed by dual curve analysis. […] In addition, to negate the possibility of avidity effects, Fab fragments were generated by papain cleavage and the kinetic analysis was repeated (see Table 24).

[7] = target: T1, human TNFα (Tumor Necrosis …); assay: KinExA, TNFα counted as three monomers
Description: as §2

human GST-TNFα = target: T3, human GST-TNFα (human, UniProt P01375 77-233); assay: ELISA, plate coated with 0.5 µg/ml human GST-TNFα, HRP goat anti-human IgG detection
T3 construct: also called E. coli expressed soluble human TNF; not shown: GST fusion partner
Description: (§3) Anti-TNFα antibodies were also tested for their ability to bind to soluble recombinant TNFα. Human and monkey (cynomolgous macaque) TNFα were expressed in E. coli as fusion proteins with GST. Binding was assessed by ELISA. […] Bound antibody was detected using an HRP-conjugated goat anti-human IgG antibody.

[8] = target: T4, monkey (cynomolgous macaque) GST-TNFα (cynomolgous macaque, UniProt P79337 77-233); assay: ELISA, plate coated with 2 µg/ml monkey (cynomolgus macaque) GST-TNFα, HRP goat anti-human IgG detection
T4 construct: also called E. coli expressed soluble cynomolgous macaque monkey TNF; monkey TNFα; not shown: GST fusion partner
Description: as §3

[9] = target: T1, human TNFα (Tumor Necrosis …); assay: cell-based or functional assay; remark: listed apart in the source
[10] = target: T5, H/M BglI chimeric TNFα (human 1-36, murine 37-157) (human; mouse, UniProt P06804 81-235); assay: ELISA on chimeric/mutant TNFα
T5 construct: Murine range is printed as 37-157 in human-aligned numbering; also called H/MBgl1; Hu/MBgl1
T5 chain: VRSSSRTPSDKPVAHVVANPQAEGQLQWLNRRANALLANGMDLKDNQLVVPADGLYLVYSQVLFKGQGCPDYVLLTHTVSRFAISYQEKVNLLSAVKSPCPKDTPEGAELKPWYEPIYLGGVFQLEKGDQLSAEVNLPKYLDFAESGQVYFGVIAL
Text: as §1

[11] = target: T6, H/M PvuII chimeric TNFα (human 1-125, murine 126-157) (human; mouse); assay: ELISA on chimeric/mutant TNFα
T6 construct: also called Hu/M PVu11
T6 chain: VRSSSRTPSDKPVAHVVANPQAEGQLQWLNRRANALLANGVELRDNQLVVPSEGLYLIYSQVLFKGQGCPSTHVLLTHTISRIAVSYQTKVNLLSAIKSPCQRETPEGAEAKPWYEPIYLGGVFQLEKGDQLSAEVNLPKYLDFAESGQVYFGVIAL
Text: as §1

[12] = target: T7, H/M HincII chimeric TNFα (human 1-91, murine 92-157) (human; mouse); assay: ELISA on chimeric/mutant TNFα
T7 construct: Murine range printed 92-157 (human-aligned); also called Hu/M Hin C l1
T7 chain: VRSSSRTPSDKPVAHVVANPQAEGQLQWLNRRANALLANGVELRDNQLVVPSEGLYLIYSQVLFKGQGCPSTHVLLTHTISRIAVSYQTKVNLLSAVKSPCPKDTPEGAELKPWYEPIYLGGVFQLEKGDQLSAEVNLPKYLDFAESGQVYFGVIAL
Text: as §1

[13] = target: T1, human TNFα (Tumor Necrosis …); assay: KinExA, unknown antigen concentration method
Description: as §2

[14] = target: T1, human TNFα (Tumor Necrosis …); assay: KinExA, Fab from papain cleavage
Description: as §2

[15] = target: T5, H/M BglI chimeric TNFα (human 1-36, …); assay: ELISA on expressed TNFα constructs
[16] = target: T6, H/M PvuII chimeric TNFα (human 1-125, …); assay: ELISA on expressed TNFα constructs
[17] = target: T7, H/M HincII chimeric TNFα (human 1-91, …); assay: ELISA on expressed TNFα constructs

transmembrane mutant TNFα expressed on the surface of CHO cells, sequence (P01375 whole entry, change not shown, form in doubt): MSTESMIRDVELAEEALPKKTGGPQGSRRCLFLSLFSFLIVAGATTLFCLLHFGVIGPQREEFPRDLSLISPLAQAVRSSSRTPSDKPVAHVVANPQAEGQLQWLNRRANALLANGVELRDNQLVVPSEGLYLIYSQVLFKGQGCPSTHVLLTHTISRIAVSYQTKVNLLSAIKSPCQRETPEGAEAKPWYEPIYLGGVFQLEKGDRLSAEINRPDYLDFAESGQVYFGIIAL

B1: 263 (antibody, human IgG1, V domains shown)
VH: EVQLVESGGGLIQPGGSLRLSCAASGFTVSRNYMSWVRQAPGKGLEWVSVIYSGDRTYYADSVKGRFTISRDNSKNTLYLQMNSLRAEDTAVYYCARGEGGFDYWGQGTLVTVSS
VL: EIVMTQSPATLSVSPGERATLSCRASQSVSSNLAWYQQKPGQAPRLLIHGASIRATGLPARFSGSGSGTEFTLTISSLQSEDFAVYYCQQYNYWWTFGQGTKVEIK
notes: XENOMAX derived, recombinant human IgG1 kappa; also called SC263
For B1, the “IC50 1 hr Pre-incubation, TNF induced apoptosis in MCF-7 cells” value [1] was 59.5 pM, the “IC50 18 hr Pre-incubation, TNF induced apoptosis in MCF-7 cells” value [1] was 37 pM and the “Whole Blood IC50, TNFα-induced IL-8 production” value [2] was 524 pM. For the same binder, the “ADCC (%)” value [3] was 10%, the “CDC (%)” value [3] was 17% and the “In vivo Potency (IC50), ALT, hTNFα/D-GalN hepatic injury in mice” value [4] was 48000 pM. The “In vivo Potency (IC50), human TNFα-induced IL-6 in mice” value [4] was 35000 pM, the binding result [5] was “binds” and the binding result (human TNFα R131Q mutant) was “binds”. For the same binder, the binding result (human TNFα R31Q mutant) was “binds”, the binding result (mouse TNFα) was “no binding” and the Kd [6] was 3.73 pM. For the same binder, the Kd [7] was 11.2 pM, the “EC50 (read off the curve)” value (human GST-TNFα) was about 3 ng/mL and the binding result [8] was “no binding (tested: 100 ng/ml)”.

B2: Rabbit R014 (AB-TNFα-R014) (antibody, rabbit IgG1, V domains shown)
VH: QSLEESGGRLVTPGTPLTLTCTVSGIDLSSNTMGWFRRAPGKGLEWIGIIISSGTTYYASWVKGRFTISKTSTTVDLKITRPTTEDTATYFCARGWYEFNLWGPGTLVTVSS
VL: DVVMTQTPASVEAAVGGTVTIKCQASENIDILLAWYQQKVGQPPKLLIYRASKLASGAPSRFSGSGSGTEFTLTISDLECGDAATYYCQSNVGSTARSSYGNAFGGGTEVVVK
notes: Fully rabbit antibody, rabbit IgG1 heavy and kappa constant regions; cloned from well 7A4; also called RO14; Rabbit 014
For B2, the “Average IC50, TNF induced apoptosis on MCF-7 cells, 1 hour pre-incubation” value [9] was 14.2 pM, the binding result [5] was “binds” and the binding result (human TNFα R131Q mutant) was “binds”. B2: binds [10]; binds [11]; binds [12]. For the same binder, the binding result (human TNFα R31Q mutant) was “binds”, the Kd [13] was 0.787 pM and the “Kd (M) High” value [13] was 2.47e-12 M. The “Kd (M) Low” value [13] was 1.56e-13 M.

B3: Rabbit R014 Fab (Fab, V domains shown)
VH: QSLEESGGRLVTPGTPLTLTCTVSGIDLSSNTMGWFRRAPGKGLEWIGIIISSGTTYYASWVKGRFTISKTSTTVDLKITRPTTEDTATYFCARGWYEFNLWGPGTLVTVSS
VL: DVVMTQTPASVEAAVGGTVTIKCQASENIDILLAWYQQKVGQPPKLLIYRASKLASGAPSRFSGSGSGTEFTLTISDLECGDAATYYCQSNVGSTARSSYGNAFGGGTEVVVK
notes: Fab made by papain cleavage of R014
In the case of B3, the Kd [14] is reported as 0.638 pM, the “Kd (M) High” value [14] is reported as 1.94e-10 M and the “Kd (M) Low” value [14] is reported as 2.09e-15 M.

B4: 4.17 (hybridoma, IgG2) (antibody, V domains shown)
VH: QVQLVESGGGVVQPGRSLRLSCTTSGFTFSNYGMHWVRQAPGKGLEWVAVIWYDGSIKYYVDSVKGRFTISRDNSKNTLYLQMNSLRAEDTAVYYCAREKDCGGDCYSHYGMDVWGQGTTVTVSS
VL: DIQMTQSPSSLSASVGDRVTITCRASQGIRNDLGWYQQKPGKAPKRLIYAASSLQSGVPSRFSGSGSGTEFTLTISSLQPEDFATYYCLQHMSLPLTFGGGTKVEIK
notes: Hybridoma derived human IgG2 kappa
B4: binds (human TNFα R131Q mutant); binds [15]; binds [16]. B4: binds [17].
